Data on one molecule can be found in patent publication US20220228142A1 (VERTEX PHARMACEUTICALS, published 2022).

The target in the experiment is 53BP1 (p53-binding protein 1) (human, UniProt Q12888 1-1972, limits assumed). Put plainly: cell-based or functional assay.
Sequence of 53BP1 (p53-binding protein 1) (Q12888 whole entry): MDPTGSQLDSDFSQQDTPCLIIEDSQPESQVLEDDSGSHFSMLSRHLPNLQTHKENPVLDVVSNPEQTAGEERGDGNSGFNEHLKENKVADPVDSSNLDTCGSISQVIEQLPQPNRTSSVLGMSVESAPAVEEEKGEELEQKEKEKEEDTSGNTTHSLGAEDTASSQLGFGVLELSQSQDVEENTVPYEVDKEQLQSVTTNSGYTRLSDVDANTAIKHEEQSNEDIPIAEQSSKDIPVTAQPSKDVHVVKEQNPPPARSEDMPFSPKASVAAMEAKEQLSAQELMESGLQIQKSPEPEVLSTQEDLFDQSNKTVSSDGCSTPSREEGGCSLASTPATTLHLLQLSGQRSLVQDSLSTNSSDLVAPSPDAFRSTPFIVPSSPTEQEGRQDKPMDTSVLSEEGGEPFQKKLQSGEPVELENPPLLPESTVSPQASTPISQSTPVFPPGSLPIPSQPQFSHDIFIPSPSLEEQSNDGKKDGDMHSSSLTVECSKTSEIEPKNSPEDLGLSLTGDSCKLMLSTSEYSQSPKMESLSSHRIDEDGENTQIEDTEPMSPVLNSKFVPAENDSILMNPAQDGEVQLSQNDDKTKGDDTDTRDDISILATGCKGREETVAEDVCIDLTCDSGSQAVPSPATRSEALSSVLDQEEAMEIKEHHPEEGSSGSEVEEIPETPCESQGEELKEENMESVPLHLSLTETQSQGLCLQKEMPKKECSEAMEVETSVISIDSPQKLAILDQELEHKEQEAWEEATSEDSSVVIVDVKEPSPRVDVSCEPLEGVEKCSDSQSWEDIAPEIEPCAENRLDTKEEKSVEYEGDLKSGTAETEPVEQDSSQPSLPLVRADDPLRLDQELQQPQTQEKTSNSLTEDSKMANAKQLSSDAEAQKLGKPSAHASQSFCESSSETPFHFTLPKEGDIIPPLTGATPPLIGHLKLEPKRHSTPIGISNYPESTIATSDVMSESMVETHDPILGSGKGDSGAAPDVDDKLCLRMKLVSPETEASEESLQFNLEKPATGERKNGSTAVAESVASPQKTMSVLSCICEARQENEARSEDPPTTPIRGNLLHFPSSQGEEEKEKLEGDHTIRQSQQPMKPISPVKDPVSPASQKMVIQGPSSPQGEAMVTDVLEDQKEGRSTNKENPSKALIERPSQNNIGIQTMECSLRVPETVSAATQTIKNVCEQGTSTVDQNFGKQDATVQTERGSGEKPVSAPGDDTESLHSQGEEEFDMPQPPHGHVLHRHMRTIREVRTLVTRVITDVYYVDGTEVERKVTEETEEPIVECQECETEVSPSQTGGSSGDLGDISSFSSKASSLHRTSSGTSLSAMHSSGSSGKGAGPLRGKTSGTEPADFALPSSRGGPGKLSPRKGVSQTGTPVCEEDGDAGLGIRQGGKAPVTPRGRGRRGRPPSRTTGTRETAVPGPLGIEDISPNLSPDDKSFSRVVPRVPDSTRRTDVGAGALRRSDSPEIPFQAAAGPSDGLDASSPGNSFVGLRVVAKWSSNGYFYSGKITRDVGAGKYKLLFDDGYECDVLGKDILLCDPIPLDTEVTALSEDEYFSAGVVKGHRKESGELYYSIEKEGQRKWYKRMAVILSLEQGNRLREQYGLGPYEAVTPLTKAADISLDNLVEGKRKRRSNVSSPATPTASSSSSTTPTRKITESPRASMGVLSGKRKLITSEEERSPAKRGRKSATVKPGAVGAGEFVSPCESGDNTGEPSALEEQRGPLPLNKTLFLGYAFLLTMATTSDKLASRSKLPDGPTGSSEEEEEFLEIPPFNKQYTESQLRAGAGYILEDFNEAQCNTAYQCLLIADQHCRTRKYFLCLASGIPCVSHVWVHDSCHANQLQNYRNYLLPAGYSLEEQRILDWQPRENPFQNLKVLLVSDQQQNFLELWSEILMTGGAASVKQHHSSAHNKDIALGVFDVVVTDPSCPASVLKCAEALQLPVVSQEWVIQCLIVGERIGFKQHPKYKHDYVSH

B1: i53 polypeptide (polypeptide inhibitor of 53BP1) (designed binder)
chain: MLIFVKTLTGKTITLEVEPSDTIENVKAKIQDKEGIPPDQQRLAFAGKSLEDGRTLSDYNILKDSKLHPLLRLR
Turning to B1, the “INDELs due to NHEJ repair (+/-1 nt), T107 RNP+AAV.310, NGS” value is 1.3 fold reduction.
